Results reported in patent US20250382371A1 (NATIONAL INSTITUTES OF BIOMEDICAL INNOVATION HEALTH AND …, published 2025).

T1: hFCRL1/FcRH1-His (manufactured by R&D Systems) (human, UniProt Q96LA6 17-307)
T1 construct: Bought His-tagged recombinant human FCRL1; The protein in the assay is soluble and is probably only the extracellular part; not shown: His tag
T1 sequence: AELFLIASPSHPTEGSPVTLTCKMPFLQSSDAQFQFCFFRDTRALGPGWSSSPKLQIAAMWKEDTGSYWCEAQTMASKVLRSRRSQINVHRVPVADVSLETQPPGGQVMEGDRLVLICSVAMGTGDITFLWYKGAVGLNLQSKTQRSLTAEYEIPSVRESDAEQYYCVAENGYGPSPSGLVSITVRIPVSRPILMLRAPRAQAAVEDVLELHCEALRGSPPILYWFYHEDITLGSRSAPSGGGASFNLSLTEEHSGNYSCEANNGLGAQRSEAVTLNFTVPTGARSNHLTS

T2: cynomolgus monkey FCRL1 (XP_015310712), transiently expressed on 293T cells (cynomolgus monkey)
T2 chain: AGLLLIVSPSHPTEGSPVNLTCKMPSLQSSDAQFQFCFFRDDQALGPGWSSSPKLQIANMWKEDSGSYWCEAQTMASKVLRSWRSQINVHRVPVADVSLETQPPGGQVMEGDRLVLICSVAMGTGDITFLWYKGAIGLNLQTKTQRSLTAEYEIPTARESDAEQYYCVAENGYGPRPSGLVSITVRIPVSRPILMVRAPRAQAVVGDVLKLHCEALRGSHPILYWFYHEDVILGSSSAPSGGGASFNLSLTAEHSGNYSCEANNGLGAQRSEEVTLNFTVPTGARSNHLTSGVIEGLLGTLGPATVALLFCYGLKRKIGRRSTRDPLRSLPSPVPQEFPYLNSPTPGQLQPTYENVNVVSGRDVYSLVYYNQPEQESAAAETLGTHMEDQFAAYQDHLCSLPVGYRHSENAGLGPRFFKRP

T3: human FCRL1 (NCBI accession number: NP_443170.1), transiently expressed on 293T cells (human, UniProt Q96LA6 17-429)
T3 construct: also called Fc receptor-like protein 1; CD307a
T3 sequence: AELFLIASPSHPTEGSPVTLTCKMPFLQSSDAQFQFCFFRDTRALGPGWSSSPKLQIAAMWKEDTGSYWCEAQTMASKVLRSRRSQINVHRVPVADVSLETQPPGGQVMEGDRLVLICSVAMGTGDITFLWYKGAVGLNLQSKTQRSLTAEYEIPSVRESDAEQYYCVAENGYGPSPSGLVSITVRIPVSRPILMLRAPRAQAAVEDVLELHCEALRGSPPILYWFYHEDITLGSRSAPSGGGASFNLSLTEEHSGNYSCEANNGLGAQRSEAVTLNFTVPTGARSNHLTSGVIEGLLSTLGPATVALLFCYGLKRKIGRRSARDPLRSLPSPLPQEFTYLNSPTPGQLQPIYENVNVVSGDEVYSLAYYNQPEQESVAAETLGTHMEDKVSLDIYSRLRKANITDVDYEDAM

B1: DK681 chimeric antibody (chDK681), human IgG1 (S239C) (antibody)
heavy: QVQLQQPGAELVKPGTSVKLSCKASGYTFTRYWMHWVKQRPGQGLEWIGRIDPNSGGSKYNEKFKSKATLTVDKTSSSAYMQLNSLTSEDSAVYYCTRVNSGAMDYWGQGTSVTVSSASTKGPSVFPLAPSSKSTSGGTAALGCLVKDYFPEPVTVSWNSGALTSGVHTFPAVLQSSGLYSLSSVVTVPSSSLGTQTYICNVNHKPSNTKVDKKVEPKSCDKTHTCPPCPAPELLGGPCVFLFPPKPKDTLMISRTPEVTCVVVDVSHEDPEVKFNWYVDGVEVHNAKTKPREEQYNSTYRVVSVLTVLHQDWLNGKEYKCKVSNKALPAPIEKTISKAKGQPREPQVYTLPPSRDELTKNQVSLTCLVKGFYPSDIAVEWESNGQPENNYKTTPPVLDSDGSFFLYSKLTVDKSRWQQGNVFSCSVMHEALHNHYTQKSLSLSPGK
light: DIVMSQSPSSLAVSVGEKVTMSCKSSQSLLYSSNQKNYLAWYQQKPGQSPKLLIYWASTRESGVPDRFTGSGSGTDFTLTISSVKAEDLAIYYCQQYSNYPTFGSGTKLEIK
notes: also called DK681 F01; not shown: human kappa light chain constant region (pFUSE2-CLIg-hk vector)
B2: anti-human FCRL1 mouse monoclonal antibody DK681 (antibody, V domains shown)
VH: QVQLQQPGAELVKPGTSVKLSCKASGYTFTRYWMHWVKQRPGQGLEWIGRIDPNSGGSKYNEKFKSKATLTVDKTSSSAYMQLNSLTSEDSAVYYCTRVNSGAMDYWGQGTSVTVSS
VL: DIVMSQSPSSLAVSVGEKVTMSCKSSQSLLYSSNQKNYLAWYQQKPGQSPKLLIYWASTRESGVPDRFTGSGSGTDFTLTISSVKAEDLAIYYCQQYSNYPTFGSGTKLEIK
B3: anti-human FCRL1 mouse monoclonal antibody DK1164 (antibody, V domains shown)
VH: QVQLQQSGTELVRPGTSVKVSCKASGYAFTNYLIEWVKQRPGQGLEWIGVINPGSGGTDYNKKFKGKAMLTADKSSNTAYMQLSSLTSDDSAVYFCARSNSYAMDYWGQGTSVTVSS
VL: DIVMSQSPSSLAVSVGEKVTVSCKSSQSLLYSGNQKNNLAWYKQKPGQSPKLLIYWASTRESGVPDRFTGSGSGTDFTLTMSSVKAEDLAVYYCQQYYSYPWTFGGGTKLEIK
B4: DK1142 humanized antibody DK1142 F22, human IgG1 (S239C) (antibody)
heavy: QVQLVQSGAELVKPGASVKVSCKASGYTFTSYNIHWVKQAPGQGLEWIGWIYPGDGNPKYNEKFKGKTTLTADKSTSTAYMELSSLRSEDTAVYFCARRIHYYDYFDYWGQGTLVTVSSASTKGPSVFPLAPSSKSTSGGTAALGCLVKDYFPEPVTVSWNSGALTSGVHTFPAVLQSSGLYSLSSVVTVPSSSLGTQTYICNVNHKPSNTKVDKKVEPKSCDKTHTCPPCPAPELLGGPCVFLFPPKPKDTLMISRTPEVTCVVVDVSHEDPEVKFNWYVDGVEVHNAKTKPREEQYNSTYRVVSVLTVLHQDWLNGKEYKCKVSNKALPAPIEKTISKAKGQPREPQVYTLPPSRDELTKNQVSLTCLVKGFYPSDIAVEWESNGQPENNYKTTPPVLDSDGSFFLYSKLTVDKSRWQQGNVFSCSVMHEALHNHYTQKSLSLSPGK
light: DIVMTQSPLSLPVTLGEPASISCRSSQSIVHSNGNTYLEWYLQKPGQSPQLLIYKVSNRFSGVPDRFSGSGSGTDFTLKISRVEAEDVGVYYCFQGSHVPWTFGQGTKVEIK
B5: DK1142 humanized antibody DK1142 F21, human IgG1 (S239C) (antibody)
heavy: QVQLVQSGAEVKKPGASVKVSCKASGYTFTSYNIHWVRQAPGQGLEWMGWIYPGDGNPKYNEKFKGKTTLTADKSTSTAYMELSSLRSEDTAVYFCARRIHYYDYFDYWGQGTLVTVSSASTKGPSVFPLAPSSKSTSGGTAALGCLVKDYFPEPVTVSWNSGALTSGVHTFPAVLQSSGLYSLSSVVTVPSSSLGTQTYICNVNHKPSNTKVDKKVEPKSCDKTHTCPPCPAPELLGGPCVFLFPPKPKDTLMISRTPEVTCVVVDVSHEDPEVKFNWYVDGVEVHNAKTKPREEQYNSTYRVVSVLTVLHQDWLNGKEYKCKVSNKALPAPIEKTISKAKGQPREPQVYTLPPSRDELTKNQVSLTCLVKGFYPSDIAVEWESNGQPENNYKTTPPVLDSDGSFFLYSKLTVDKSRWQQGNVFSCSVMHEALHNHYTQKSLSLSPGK
light: DIVMTQSPLSLPVTLGEPASISCRSSQSIVHSNGNTYLEWYLQKPGQSPQLLIYKVSNRFSGVPDRFSGSGSGTDFTLKISRVEAEDVGVYYCFQGSHVPWTFGQGTKVEIK
B6: DK1142 humanized antibody DK1142 F24, human IgG1 (S239C) (antibody)
heavy: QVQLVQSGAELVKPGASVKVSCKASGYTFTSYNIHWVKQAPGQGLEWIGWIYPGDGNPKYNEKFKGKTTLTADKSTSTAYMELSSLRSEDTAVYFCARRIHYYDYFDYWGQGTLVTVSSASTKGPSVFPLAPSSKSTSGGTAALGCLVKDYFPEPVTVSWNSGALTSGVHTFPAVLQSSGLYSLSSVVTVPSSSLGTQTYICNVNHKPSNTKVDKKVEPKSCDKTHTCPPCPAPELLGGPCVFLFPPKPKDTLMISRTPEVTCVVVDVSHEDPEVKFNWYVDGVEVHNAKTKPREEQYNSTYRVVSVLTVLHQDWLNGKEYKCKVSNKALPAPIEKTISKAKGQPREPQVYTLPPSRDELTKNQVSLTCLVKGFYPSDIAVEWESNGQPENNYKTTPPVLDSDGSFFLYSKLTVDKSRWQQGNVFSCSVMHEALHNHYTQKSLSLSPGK
light: DVVMTQSPLSLPVTLGEPASISCRSSQSIVHSNGNTYLEWYLQKPGQSPKLLIYKISNRFSGVPDRFSGSGSGTDFTLKISRVEAEDVGVYYCFQGSHVPWTFGQGTKVEIK

Legend:
[1] = biological target: T1, hFCRL1/FcRH1-His (manufactured by R&D …); experiment: SPR (Biacore 8K+), antibody captured by anti-human IgG, hFCRL1/FcRH1-His as analyte; Steady state affinity model; KD from Steady state affinity model, not from kd/ka
Procedure: (§1) For the purpose of comparing the binding activity of the DK681 chimeric antibody (chDK681) and the DK1142 chimeric antibody (chDK1142) obtained by connecting […] of the DK681 and DK1142 mouse antibodies obtained in Example 4 to a human IgG1 (S239C) constant region with the binding activity of the anti-FCRL1 humanized antibody obtained in Example 10 to human FCRL1, the binding activity to hFCRL1/FcRH1-His (manufactured by R&D Systems) was measured by a surface plasmon resonance method (SPR method) using Biacore8K+ (manufactured by Cytiva).
(§2) The binding activity of the anti-FCRL1 antibody was measured as follows. An anti-human IgG antibody was immobilized on a CM5 sensor chip (manufactured by Cytiva) in accordance with the attached protocol using a Human Antibody Capture Kit (manufactured by Cytiva). […]
(§3) Next, hFCRL1/FcRH1-His, which is prepared stepwise to 5 concentrations by 3-fold dilution from 10000 ng/ml, was monitored at a flow rate of 30 μL/min for a binding reaction for 180 seconds and a dissociation reaction for 400 seconds. For the obtained sensorgram, a kinetic constant of each antibody was calculated by fitting by a Steady state affinity model or a 1:1 Binding model using Bia Evaluation Software (manufactured by Cytiva). The calculated binding rate constant (ka), dissociation rate constant (kd) and dissociation constant [KD] of each antibody are shown in Table 5. […]

[2] = biological target: T1, hFCRL1/FcRH1-His (manufactured by R&D …); experiment: SPR (Biacore 8K+), antibody captured by anti-human IgG, hFCRL1/FcRH1-His as analyte; Steady state affinity model; kinetic rate constant of the same sensorgram
Procedure: as §1, §2, §3

[3] = biological target: T2, cynomolgus monkey FCRL1 (XP_015310712), …; experiment: flow cytometry on 293T cells transiently expressing cynomolgus monkey FCRL1; apparent KD from EC50 of a 4-parameter fit
Procedure: (§4) An antigen-specific reactivity of the novel anti-human FCRL1 mouse antibody obtained in Example 4 was evaluated by Flow Cytometry (FCM). FCRL1 antigen-expressing cells were prepared by transiently expressing the recombinant FCRL1 antigen on 293T cells. A codon-optimized cDNA was synthesized based on the amino acid sequence of human FCRL1 (NCBI accession number: NP_443170.1) or cynomolgus monkey FCRL1 (XP_015310712), and a fragment in which the sequence of an internal ribosome entry site (IRES) derived from the encephalomyocarditis virus (EMCV) and the sequence of TagBFP were arranged in tandem was cloned into pcDNA 3.1hygro to construct an expression plasmid vector for human FCRL1 or cynomolgus monkey FCRL1. The purified expression vector was transfected into 293T cells, cells were collected 2 days after transfection, and binding with each antibody was confirmed by FCM.
(§5) As the secondary antibody, when the sample is a mouse antibody, R-Phycoerythrin (PE) F(ab′)₂ Fragment Goat Anti-Mouse IgG (H+L) (Jackson ImmunoResearch) was used, and when the sample is a human antibody or a human chimeric antibody, R-Phycoerythrin (PE) F(ab′)₂ Fragment Goat Anti-Human IgG, Fcγ Fragment Specific (Jackson ImmunoResearch) was used. A solution of each secondary antibody was prepared by diluting the stock solution 200 times with an FCM buffer. After washing once, cells in each well were suspended with 100 μL of FCM buffer, and binding to each antibody was confirmed by flow cytometry (FCM).
(§6) Cells that transiently expressed human FCRL1 or cynomolgus monkey FCRL1 were reacted with a 3-fold dilution series of each antibody starting from 100 nM (15 μg/ml) at 12 points. Data obtained by the FCM was analyzed, and a binding amount of each antibody bound to the cell was calculated as a fluorescence amount MFI derived from the PE-labeled secondary antibody. An antibody concentration and the measured MFI were plotted with respect to a logarithm of the antibody concentration, a saturated binding curve of each antibody was obtained, and regression was performed by a 4-parameter logistic model.

[4] = biological target: T3, human FCRL1 (NCBI accession number: …); experiment: flow cytometry on 293T cells transiently expressing human FCRL1; apparent KD from EC50 of a 4-parameter fit
Procedure: as §4, §5, §6

[5] = biological target: T1, hFCRL1/FcRH1-His (manufactured by R&D …); experiment: SPR (Biacore 8K+), antibody captured by anti-human IgG, hFCRL1/FcRH1-His as analyte; 1:1 Binding model
Procedure: as §1
The binding activity of the anti-FCRL1 antibody was measured as follows. An anti-human IgG antibody was immobilized on a CM5 sensor chip (manufactured by Cytiva) in accordance with the attached protocol using a Human Antibody Capture Kit (manufactured by Cytiva). An anti-FCRL1 antibody prepared at 5 μg/mL was added to a flow cell on which the Anti-human IgG antibody was immobilized at a flow rate of 10 μL/min for 30 seconds.
Next, hFCRL1/FcRH1-His, which is prepared stepwise to 5 concentrations by 3-fold dilution from 10000 ng/ml, was monitored at a flow rate of 30 μL/min for a binding reaction for 180 seconds and a dissociation reaction for 400 seconds. For the obtained sensorgram, a kinetic constant of each antibody was calculated by fitting by a Steady state affinity model or a 1:1 Binding model using Bia Evaluation Software (manufactured by Cytiva). The calculated binding rate constant (ka), dissociation rate constant (kd) and dissociation constant [KD] of each antibody are shown in Table 5. The chDK681 is referred to as DK681 F01, and the chDK1142 is referred to as DK1142 F02.

| Binder | Kd [3] [nM] | Kd [4] [nM] | Kd [5] [nM] | koff [5] [s⁻¹] | kon [5] [M⁻¹ s⁻¹] | other results |
| --- | --- | --- | --- | --- | --- | --- |
| B1 |  |  |  |  |  | Kd [1]: 6.65 nM; koff [2]: 0.00105 s⁻¹; kon [2]: 447000 M⁻¹ s⁻¹ |
| B2 | 0.8 | 1 |  |  |  |  |
| B3 | 1.4 | 2.3 |  |  |  |  |
| B4 |  |  | 11.1 | 0.0428 | 3.85e+06 |  |
| B5 |  |  | 12.8 | 0.0686 | 5.36e+06 |  |
| B6 |  |  | 12.2 | 0.0274 | 2.24e+06 |  |
